T1: Irr (Bradyrhizobium japonicum, UniProt O85719 1-163)
T1 sequence: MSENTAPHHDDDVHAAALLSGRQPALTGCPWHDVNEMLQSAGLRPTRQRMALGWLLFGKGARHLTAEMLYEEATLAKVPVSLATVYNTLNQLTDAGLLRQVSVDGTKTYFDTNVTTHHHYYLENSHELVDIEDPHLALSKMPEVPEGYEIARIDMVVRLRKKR

B1: blr3904 ICE-like probe (dsDNA)
DNA 1: CAGGAATTCGATACTTTAGAACCGTTTGAAACTGACCTC
DNA 2: GTCGAGGTCAGTTTCAAACGGTTCTAAAGTATCGAATTC
B2: bll5796 ICE-like probe (dsDNA)
DNA 1: CAGGAATTCGATAGCTTAGAACGCTTCTATGCCGACCTC
DNA 2: GTCGAGGTCGGCATAGAAGCGTTCTAAGCTATCGAATTC
B3: non-specific pSK control (dsDNA)
DNA 1: CAGGAATTCGATATCAAGCTTATCGATACCGTCGACCTC
DNA 2: GTCGAGGTCGACGGTATCGATAAGCTTGATATCGAATTC

Target: T1, Irr
Assay: EMSA

| Binder | binding result |
| --- | --- |
| B1 | binds |
| B2 | binds |
| B3 | no binding |

— paper PMC1424673
